Measured values from the MegaScale stability set (Tsuboyama et al. 2023).

B1: 5KPH (parent)
chain: EEKRQVKQVAKEKLLEQSPNSKVQVRRVQKQGNTIRVELELRTNGKKENYTVEVERQGNTWTVKRITRT

Variants of: B1
Assay: folding stability dG (cDNA display proteolysis); higher = more stable
Settings: PBS, room temperature

Variant	folding stability dG [kcal/mol]
G58W	3
G58C	3.16
G58F	3.43
Q5N	3.54
Q5W	3.62
Q5I	3.95
Q5S	3.84
Q5F	3.83
R42K	3.57
R42Q	3.81
R42N	4.19
R42M	3.85
R42P	1.28
R26W	3.49
R26D	2.16
R26K	4
R26E	2.58
R26T	3.92
R26V	4.16
K22D	3.8
K22W	4.06
K22T	4.16
K22F	4.16
K22H	3.91

Variant	folding stability dG [kcal/mol]
K22A	3.71
K22Q	4.05
K22S	3.83
Q57A	3.81
Q57C	3.53
Q57F	3.88
Q57S	3.89
Q57M	3.89
Q57D	4.07
V28Y	4.35
V28L	4.03
V28K	1.74
V28R	1.56
V28C	3.4
K47I	4.14
K47Q	3.64
K47L	4.04
K47E	3.13
K47F	3.86
K47S	3.92
V25L	2.91
V25R	1.71
V25K	1.3
V25C	3.09

Variant	folding stability dG [kcal/mol]
V25H	2.19
V25Q	1.67
Q29Y	4.51
Q29G	3.42
Q29L	4.26
Q29R	4.17
Q29H	4.18
E53W	4.23
E53C	3.34
E53Q	3.39
E53M	3.58
N49V	4.07
N49A	3.73
N49I	4.22
N49K	4.23
N49Y	4.3
N44E	4.02
N44D	3.79
N44Q	3.67
N44L	3.83
N44F	3.7
V9Q	3.26
V9F	3.82
V9N	2.18

Variant	folding stability dG [kcal/mol]
V9E	2.33
V9L	4.16
V9S	2.4
V9A	3.39
V9T	3.15
T60K	3.99
T60Q	4.23
T60S	4.13
T60V	4.01
T60C	3.33
L14K	2.18
L14D	1.74
L14Q	1.9
L14M	4.02
L14I	3.75
L14T	2.26
V54L	3.94
V54S	1.63
V54N	0.723
V54C	3.36
V54G	1.44
A10Y	1.96
A10R	2.02
A10I	4.24

Variant	folding stability dG [kcal/mol]
E40V	4.23
P19H	2.92
P19L	2.64
P19C	3.04
P19K	3.03
P19E	2.5
P19V	2.82
P19W	2.15
P19D	2.31
T67S	3.68
T67H	3.62
K13T	3.78
K13S	3.66
K13P	2.43
K13F	3.99
K13N	2.71
K13G	3.55
E12G	3.34
E12Q	4.02
E12V	3.21
E12I	3.56
E12L	3.47
S21H	2.6
S21R	2.18

Variant	folding stability dG [kcal/mol]
S21C	3.12
S21Q	2.31
S21L	2.57
Q17K	3.77
N20S	3.81
K30T	4.14
K30M	4.28
K30V	4.33
S18R	3.82
S18T	3.35
V23H	1.57
V23W	2.67
V23R	1.43
V23T	2.51
V37R	-0.176
V37F	2.39
V37M	2.89
V37L	3.33
T34C	3.48
T34F	3.81
T34S	3.59
T34H	3.57
T34I	3.97
T34P	2.41

Variant	folding stability dG [kcal/mol]
T34L	3.96
T34E	2.99
R56I	3.29
R56V	3.24
G32H	3.14
G32C	3.07
G32T	2.6
G32A	3.18
G32R	3.03
G32E	3.1
G32P	2.45
G32Y	3.13
V52G	0.851
V52M	3.22
V52W	1.58
V52F	2.52
V52Y	1.78
K7Q	4.19
K7D	3.14
K7V	4.86
Q24T	4.24
Q24L	4.38
Q24H	4.28
Q8G	3.2

Variant	folding stability dG [kcal/mol]
Q8N	3.57
Q8R	3.92
Q8K	4.16
Q8F	3.03
Q8A	3.76
Q8S	3.55
W61T	2.21
W61H	2.59
W61F	3.74
W61I	3.14
Q31M	4.47
Q31V	4.25
Q31P	1.87
Q31W	4.41
Q31S	4.03
Q31G	3.13
E48A	3.58
E48N	3.08
E48W	3.87
E48P	1.23
E48Y	3.75
T69H	4.21
T69R	3.89
T69I	3.99

Variant	folding stability dG [kcal/mol]
T69M	4.13
T69G	3.7
T69N	3.87
I66H	1.67
I66V	3.94
I66Y	2.85
I66R	1.28
I66L	3.25
I66A	2.2
E38V	3.85
E38F	4.66
E38D	3.91
E38N	3.51
E38H	4.14
V63W	2.07
V63M	2.06
V63N	0.507
V63Q	1.16
V63A	3.02
K11R	3.94
R68Q	3.73
R68S	3.21
R68V	3.46
L39H	0.352

Variant	folding stability dG [kcal/mol]
L39I	3.67
L39K	-0.798
L39M	3.66
L39A	3.65
R27S	3.79
R27Y	3.72
R27E	2.76
R27M	3.43
R27K	3.62
Y50E	-0.081
Y50S	1.25
Y50W	4.12
R4D	3.98
R4Y	3.64
R4P	2.55
R4H	3.79
R4I	3.04
R4V	3.34
R4Q	3.81
K46G	3.49
K46I	4.03
K46F	3.81
K46D	3.43
K46L	3.79

Variant	folding stability dG [kcal/mol]
T43L	3.94
T43H	3.98
T43A	3.72
T43W	3.7
T43E	3.78
T62E	3.82
T62V	4.27
T62Q	3.92
T62P	1.79
K3M	4.84
K3T	4.31
K3W	4.88
K3P	3.01
K3D	4.41
K3E	4.84
L41F	2.69
L41S	3.24
L41W	2.39
L41R	2.65
L41M	3.89
L41Y	2.35
K64Q	3.56
K64W	3.08
K64C	3.62

Variant	folding stability dG [kcal/mol]
G45A	3.5
G45L	3.42
G45P	1.96
G45T	3.49
G45Q	3.5
G45F	3.97
G45M	3.52
V6G	3.48
V6Y	3.13
V6P	3.55
V6M	3.03
V6E	2.28
E16N	3.21
E16P	2.15
E16G	3.25
E16A	3.8
E16K	3.24
N33R	3.74
N33D	3.9
N33I	3.38
N33L	3.58
N33E	3.68
N33T	3.82
T51S	3.75

Variant	folding stability dG [kcal/mol]
T51D	3.01
T51E	3.87
T51K	3
E2F	3.16
E2Y	3.08
E2G	3.24
E2I	3.93
E2P	2.94
E2T	3.74
N59L	3.68
N59I	3.54
N59C	3.22
N59F	3.54
N59V	3.42
N59R	3.33
N59W	3.5
N59A	3.69
N59Q	3.77
I35T	3.82
I35M	4.13
I35R	2.6
L15H	2.98
L15F	3.03
L15Q	3.42

Variant	folding stability dG [kcal/mol]
L15W	2.92
L15R	3.33
L15C	3.13
R36Q	3.75
R36G	2.54
R36H	4.04
R36P	0.344
R36S	3.85
E55Q	3.7
E55D	3.2
E55W	3.92
E55M	3.88
E55H	3.65
E55C	3.34
R65S	4.29
R65C	3.44
R65M	3.84
R65L	3.67
E1N	3.37
E1Y	2.92
E1G	3.49
E1D	3.52
